# Assay results published in publication PMC2757719, “EBNA1-Mediated Recruitment of a Histone H2B Deubiquitylating Complex to the Epstein-Barr Virus Latent Origin of DNA Replication” (PLoS Pathogens, 2009).
# B1: EBNA1 truncation mutant 395–641 (domain or fragment)
# chain: PRRPPPGRRPFFHPVGEADYFEYHQEGGPDGEPDVPPGAIEQGPADDPGEGPSTGPRGQGDGGRRKKGGWFGKHRGQGGSNPKFENIAEGLRALLARSHVERTTDEGTWVAGVFVYGGSKTSLYNLRRGTALAIPQCRLTPLSRLPFGMAPGPGPQPGPLRESIVCYFMVFLQTHIFAEVLKDAIKDLVMTKPAPTCNIRVTVCSFDDGVDLPPWFPPMVEGAAAEGDDGDDGDEGGDGDEGEEGQE
# notes: EBNA1 of Epstein-Barr virus, amino acids 395-641, amplified from pc3oriPEBNA1; also called EBNA1_(395–641); EBNA_(395–641); source: E. coli BL21 pLysS (pET15b), purified (Ni-NTA Agarose)
# B2: GMP synthetase (GMPS), His-tagged, recombinant (enzyme)
# chain: not shown
# notes: human GMP synthetase, full-length cDNA (in pOTB7) amplified from the start codon to the stop codon and cloned into pFastBac HT B; mass printed as 77 Kda; also called guanosine 5′ monophosphate synthetase; His-tagged GMPS; source: High Five insect cells infected with baculovirus, purified (nickel resin)
# Columns and labels:
# [1] = target: T1, USP7 (ubiquitin specific protease USP7), full length (human, UniProt Q93009 1-1102); assay: native gel or EMSA; EBNA1 fragment titrated, preincubated with 10 pmols USP7 or USP7-NTD 10 min at RT before 10 fmoles 32P-labelled DS site 1 DNA (or EBNA1-DNA preformed, then rising USP7, Figure 2C); 20 mM Tris pH 7.5, 200 mM NaCl, 1 µg salmon sperm DNA, 20 µl; 10% polyacrylamide gel; read-out: supershift of the EBNA1-DNA complex; details: both partners purified
# T1 construct: Ubiquitin specific protease USP7 (HAUSP), human, full length; calculated mass printed as 130 Kd (135 kDa in the introduction); Monomeric by glycerol gradient sedimentation; also called HAUSP; Herpesvirus Associated Ubiquitin Specific Protease
# [2] = target: T1, USP7 (ubiquitin specific protease …); assay: co-sedimentation; glycerol gradient sedimentation: 50 µg USP7 and 25 µg GMPS, alone or mixed 1 h at room temperature, on 10%–20% glycerol gradients in 50 mM HEPES pH 7.9, 200 mM NaCl, 0.5 mM EDTA; SW41 34,000 rpm, 18 h, 4°C; markers aldolase 158 kDa, catalase 232 kDa; details: both partners purified
# [3] = target: the molecule itself; assay: as above
# T1 sequence (Q93009 whole entry, the tested form may be a part): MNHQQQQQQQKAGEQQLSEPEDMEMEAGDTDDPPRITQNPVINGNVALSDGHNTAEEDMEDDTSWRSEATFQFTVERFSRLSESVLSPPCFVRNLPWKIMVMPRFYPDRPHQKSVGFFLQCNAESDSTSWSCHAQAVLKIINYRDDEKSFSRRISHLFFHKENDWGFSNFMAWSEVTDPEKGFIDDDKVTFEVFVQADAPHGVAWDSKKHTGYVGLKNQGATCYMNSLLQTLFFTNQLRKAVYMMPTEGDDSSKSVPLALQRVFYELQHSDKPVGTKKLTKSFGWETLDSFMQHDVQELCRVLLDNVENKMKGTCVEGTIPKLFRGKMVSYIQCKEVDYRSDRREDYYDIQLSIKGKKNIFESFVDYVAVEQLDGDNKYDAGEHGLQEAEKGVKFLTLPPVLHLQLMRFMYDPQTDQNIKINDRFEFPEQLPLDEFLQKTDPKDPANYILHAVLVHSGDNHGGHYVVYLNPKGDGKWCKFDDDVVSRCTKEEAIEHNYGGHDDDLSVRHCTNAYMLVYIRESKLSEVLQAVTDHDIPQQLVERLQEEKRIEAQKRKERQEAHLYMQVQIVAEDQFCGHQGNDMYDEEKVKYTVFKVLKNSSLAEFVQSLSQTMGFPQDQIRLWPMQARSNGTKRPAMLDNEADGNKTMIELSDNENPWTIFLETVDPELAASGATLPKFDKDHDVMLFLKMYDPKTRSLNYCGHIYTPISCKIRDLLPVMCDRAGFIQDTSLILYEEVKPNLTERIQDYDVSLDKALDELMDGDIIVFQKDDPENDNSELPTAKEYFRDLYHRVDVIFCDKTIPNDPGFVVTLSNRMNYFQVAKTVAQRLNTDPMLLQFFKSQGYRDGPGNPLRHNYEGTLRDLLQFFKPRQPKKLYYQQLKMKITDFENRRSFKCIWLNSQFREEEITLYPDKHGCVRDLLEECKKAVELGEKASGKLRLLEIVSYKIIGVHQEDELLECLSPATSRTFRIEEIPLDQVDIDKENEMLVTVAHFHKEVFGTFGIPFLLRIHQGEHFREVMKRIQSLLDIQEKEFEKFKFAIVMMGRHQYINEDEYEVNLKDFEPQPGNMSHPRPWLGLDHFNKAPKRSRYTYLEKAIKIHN
Binder,binding result [1],stoichiometry N [2],stoichiometry N [3]
B1,binds,–,–
B2,–,1,2
